Sequences and labels used below:
B1: CpcA (phycocyanin alpha subunit) (natural protein)
chain: not shown
notes: phycocyanin alpha subunit CpcA, Synechocystis sp; PCC 6803; cross-linked through its N-terminal M1; In the assay it stood inside the assembled phycobilisome; also called PC alpha subunit; source: endogenous, Synechocystis 6803 cells; in isolated phycobilisomes
B2: ferredoxin-NADP+ oxidoreductase, large isoform (FNRL) (enzyme, UniProt Q55318 1-413, looked up)
chain: MYSPGYVATSSRQSDAGNRLFVYEVIGLSQSTMTDGLDYPIRRSGSTFITVPLKRMNQEMRRITRMGGKIVSIKPLEGDSPLPHTEGIAKPSQSEGSGSEAVANPAPESNKTMTTTPKEKKADDIPVNIYRPKTPYIGKVLENYPLVREGAIGTVQHLTFDLSAGDLRYLEGQSIGIIPPGEDDKGKPHKLRLYSIASTRHGDFGDDKTVSLCVRQLEYQNEAGETVQGVCSTYLCNIKEGDDIAITGPVGKEMLLPPDEDANIVMLATGTGIAPFRAFLWRMFKEQHEDYKFKGLAWLIFGIPKSENILYKDDLEKMAAEFPDNFRLTYAISREQQNAEGGRMYIQHRVAENAEELWNLMQNPKTHTYMCGLKGMEPGIDEAFTALAEQNGKEWTTFQREMKKEHRWHVETY
modifications: acetylation on the N terminus in a part of the molecules (6% in CpcG-PBS, 12% in CpcL-PBS)
notes: ferredoxin-NADP+ oxidoreductase, large isoform FNRL, Synechocystis sp; PCC 6803, slr1643; The small FNR isoform of the same gene is not meant; also called large FNR; Fd-NADP+ oxidoreductase; source: endogenous, Synechocystis 6803 wild-type and ΔAB cells; isolated with the phycobilisomes on a sucrose gradient
B3: CpcB (phycocyanin beta subunit) (natural protein, UniProt Q54714 1-172, looked up)
chain: MFDVFTRVVSQADARGEYLSGSQLDALSATVAEGNKRIDSVNRITGNASAIVSNAARALFAEQPQLIQPGGNAYTSRRMAACLRDMEIILRYVTYATFTGDASVLEDRCLNGLRETYVALGVPGASVAAGVQKMKEAALDIVNDPNGITRGDCSAIVAEIAGYFDRAAAAVA
notes: phycocyanin beta subunit CpcB, Synechocystis sp; PCC 6803; N-terminal peptide 1MFDVFTR found cross-linked through the primary amine of M1; In the assay it stood inside the assembled phycobilisome; also called PC beta subunit; source: endogenous, Synechocystis 6803 wild-type and ΔAB cells; in isolated CpcG-PBS and CpcL-PBS

Assay [1] has as its target B2. The assay is described as follows: cross-linking; isolated CpcG-PBS and CpcL-PBS (partners co-purified in the native complex), 0.1 uM in 0.2 M K-phosphate, 1:1 BS3-H12/D12, 10 min in the dark at room temperature, cross-linker/PBS 10:1, 50:1 and 100:1; LysC and trypsin digestion, LC-MS/MS, ICC-CLASS and pLink. The conditions noted are these: both partners purified.
Assay [2] concerns the target T1, CpcL-PBS (CpcL-type phycobilisome, without allophycocyanin) (Synechocystis sp. strain PCC 6803 …, UniProt Q54715 1-162; Q54714 1-172; P73203 1-291; P73204 1-273; P73202 1-83; P74625 …).
T1 construct: phycocyanin alpha subunit CpcA, Synechocystis sp; PCC 6803; phycocyanin beta subunit CpcB, Synechocystis sp; rod linker protein CpcC1, Synechocystis sp; rod linker protein CpcC2, Synechocystis sp; rod-capping linker CpcD, Synechocystis sp; PCC 6803, ssl3093; CpcL (formerly CpcG2), Synechocystis sp; PCC 6803, sll1471; the first methionine is removed posttranslationally, threonine is the first …
Nature of the assay: co-sedimentation; step-gradient sucrose density ultracentrifugation (370,000 x g overnight) of broken cells in 0.8 M K-phosphate pH 7.5 after 2% Triton X-100; blue bands analysed by SDS-PAGE (CBB R-250) and by trypsin digestion with LC-MS/MS label-free quantification (PEAKS; Protein Metrics). The conditions noted are these: partners not purified.

For B1, the binding result in assay [1] is “binds”. Take B2: in assay [2], the “fold higher FNRL content than in CpcG-PBS, normalised to CpcC1” value was 2.4 fold; the “ratio of FNRL content, CpcL-PBS to CpcG-PBS (manual quantification, Protein Metrics)” value came out at 1.9; the “ratio of FNRL content, CpcL-PBS/CpcG-PBS (PEAKS label-free quantification)” value was found to be 1.99. Take B3: in assay [1], the binding result is “binds”.

For the origin of these results see paper PMC6479007, “Phycobilisomes Harbor FNRL in Cyanobacteria” (mBio, 2019).
